# Assay results as given in article PMC6114107, “Characterization and validation of Entamoeba histolytica pantothenate kinase as a novel anti-amebic drug target” (International Journal for Parasitology: Drugs and Drug …, 2018).
# B1: E. histolytica pantothenate kinase (Entamoeba histolytica HM-1:IMSS) (protein)
# chain: MSQPSHSIPSKHSVLSNEDIEHDDHITHTFEQYEFTKTQSPLPLNGVRRRTAPLSADMGGTMTKIVFWIPGDTDIDLPKYVEPEESVMSGFDLYPDPVLKVTMNSKGENELCFMKFPTSQIPEFIHYAKTSKLKEIYGIGNLQILNVTGGGAYKFANLLKDEMDLEVRQQDEMRCLVLGVNFLLLCCQEKLCFRFVNKTKLYREVTPEIFPYLLVNVGSGVSILKVTAPEKYERVSGSLIGGGTFWGLCCLLTNYKSFDEMLQAAQYGQHQNVDLYVKDIYGRCYDSVGLAADMMASSFGKIQKVPCGEAKNHYSEADIAQGLMMMVCGSIAHLGFELTKLHHINRIFYTGGFVAHNPVVWEAITTMLTTWSSGSVDANFLEYDGYFGSIGALLLSEYEEELM
# Assays:
# Assay type in all cases: biochemical, Entamoeba histolytica
# recombinant EhPanK = assay: Regulation of EhPanK by CoA, acetyl CoA and malonyl CoA (double-reciprocal plots); settings: inhibitor 0, 0.5, 2 mM
# From the text: PanK from other organisms was reported to be negatively regulated by allosteric inhibition with CoA, acetyl CoA, and malonyl CoA ([Calder et al., 1999]; [Takagi et al., 2010]; [Vallari et al., 1987]). […] The mechanisms of inhibition by acetyl CoA were not clear but seemed to be the mixed type with respect to ATP and pantothenate (Fig. 3).
# Fig. 2 Effect of CoA, acetyl CoA, and malonyl CoA on the pantothenate kinase activities. Relative activities of EhPanK in the presence of various concentrations of inhibitors to those without inhibitors are shown. […] The assays were carried out three times independently, and the results are shown as means ± SEM of triplicates.
# Fig. 3 Double-reciprocal plots of the recombinant EhPanK in the presence of CoA (A and B), malonyl CoA (C and D), or acetyl CoA (E and F). The enzymatic activities were determined with various concentrations of ATP and 0.2 mM pantothenate (A, C, and E) or various concentrations of pantothenate and 100 μM ATP (B, D, and F), in the presence of three concentrations of inhibitors (0, 0.5, and 2 mM). Data are shown in means ± SEM of triplicate analyses.
# [1] = substrate: Nc1ncnc2c1ncn2[C@@H]1O[C@H](COP(=O)(O)OP(=O)(O)OP(=O)(O)O)[C@@H](O)[C@H]1O; assay: Kinetic parameters of recombinant EhPanK for its substrates; settings: other: apparent Km at saturating concentration of the other substrate, 37 °C, pH 6, mean ± SEM
# Protocol: (§1) PanK and DPCK activities in the cell lysate were measured with coupled assays using ADP Hunter™ Plus Assay kit (DiscoverX, US) according to the manufacturer's instructions. […] Kinetic data were estimated by curve fitting with the Michaelis–Menten equation using GraphPad Prism (GraphPad Software Inc., San Diego, USA). This experiment was repeated three times in triplicate with proteins isolated from two independent extractions, and kinetic values are presented as the means ± S.E. for three independent kinetic assays.
# (§2) Table 1 summarizes the apparent Km, Vmax, and Kcat values for EhPanK using pantothenate and ATP as substrates.
# (§3) Fig. S5. Optimum pH and temperature (A) and initial rate plots (B, C) of EhPanK. B) The velocity of EhPanK reaction at various pantothenate concentrations in the presence of 25, 50, or 100 μM ATP. C). The velocity of EhPanK reaction at various ATP concentrations in the presence of 8, 64, or 128 μM pantothenate. […] Assays for panes B and C were conducted at 37 °C at pH 6. Data are shown in mean ± SEM of three replicates.
# [2] = substrate: CC(C)(CO)[C@@H](O)C(=O)NCCC(=O)O; assay: as above; settings: other: apparent Km at saturating concentration of the other substrate, 37 °C, pH 6, mean ± SEM
# Protocol: as §1, §2, §3
Molecule,"Mechanism of inhibition with respect to ATP (recombinant EhPanK; various ATP, 0.2 mM pantothenate)","Mechanism of inhibition with respect to pantothenate (recombinant EhPanK; various pantothenate, 100 μM ATP)",Km [1],Vmax [1],kcat [1],kcat/Km [1],Km [2],Vmax [2],kcat [2],kcat/Km [2]
CC(C)(COP(=O)(O)OP(=O)(O)OC[C@H]1O[C@@H](n2cnc3c(N)ncnc32)[C@H](O)[C@@H]1OP(=O)(O)O)[C@@H](O)C(=O)NCCC(=O)NCCSC(=O)CC(=O)O [malonyl CoA],competitive,non-competitive,–,–,–,–,–,–,–,–
B1,–,–,41.4 ± 3.9 µM,2.84 µmol/min/mg,2.15 ± 0.153 s⁻¹,51800 ± 3670 M⁻¹ s⁻¹,53.2 ± 7.1 µM,2.79 µmol/min/mg,2.11 ± 0.075 s⁻¹,39700 ± 1330 M⁻¹ s⁻¹
